Experimental data taken from the DeepSol protein solubility set.

Experiment: soluble on expression in E. coli; label from the status in PepcDB or PDB records

| Sequence | soluble on expression in E. coli |
| --- | --- |
| MAHHHHHHMNASGATASEGKNPPRDARTVSFHPESTFHEQHNAASQRFSHTSEPGWESRESNSGYAAQDGGDTANEGIRRSYYKRLYRFYRKYNPQKLCNVEKLLRECRGEEEQLFAILVGKYGPEPEEESSMLSGDCVFSSAGDSVMHYSGKRCQFPKKVKPEEGNTDCETPYWAGASSLIGDRDLLSLLQNLETPNVELQKCYMGVFAEHPTDCWNGMAYITRAEGIAPANTKFLGHTWVGTLGSGKVLVHEGKKFHRTTLYCTEECQKRGNHERWRLSVYRGEVSYLILLRTVWDPVVVPEPLPLNRSNLSEREVHSSLDGFPTRLSSMSSADSGGSGSRQPIQPPQPQQHTVTPAFVQFTKLLEELESRIIERLEGLERRMSRLENM | not soluble |
| MLLSIIMPAHNAAAYLERTLALLAQQIAGLEQVEVVAIDDASTDETAKILVEFARTHSWLKAISVDFANVGLARQAGIGLAGGQYVTFLDSDDAFLSGGLAWMVNVLRQRAPDLLMTPLQETGQPLDGTEVAGLFQDVVPLSTQQACDLFCEHQRLQGHFAGKCVTRQILLQHDLAAMECYEDMMTTPHWIVEAKSIVWGEVPVYAYYKRPGSLSDRGQTWRYGKEYIRALQSIEAAFAGRIAVWQTAHLWIGFAKDLLKTSTGRQFLDTQPAVAEKIQSISVWKYLVATQVSCKWKIRFLRVRLRLLEHHHHHH | soluble |
| MIYRKATEKDIAQLVELRKKQLEDEGIAPINNIDTELTHFFELSFKKNSFISWISEEDNEIIATSGVCFYKYPPSYLNPSGKVAYITNMYTKYEYRSRGIALALLKLVILEAKKRDYLFLRLHASDMGRPIYEEIGFKPFDDFMEMNLSLNRNGELEHHHHHH | soluble |
| MERNMKNKNKMLDLMLEAVNNIKDAMPKMQIGAPVRQNIDAGERPCLQGYYTAAELKPVLDRPPQDSNAPGASGKAFKTTNLSVEEQKEKERGEAKHCFNAFASDRISLHRDLGPDTRPPEYVEEYLLFILYHQALQGREG | not soluble |
| MISGPFLHFDPTVPLQTVMIGHPATSPLSLPSSSSSPTVADPSNIHCRVCERRYDGSQHFGIDICRACAAFFRRSVAVKKTFVCRRGTNKCELNTVSRKTTCQKCRWMRCLLVGLNVDAVVGRRSPDHVKTTSRDESVKKEDEESDTGSEGKSCEDMDVSHPIEQFQQQISFSVHRPIPTIGNPNIYTTRASLINKVLINYNEFTKSRLDVELSLKHMQQDSKVFGSTGIPIVPATREIISEIYQKQFGLLHIFLKNTFDEYAECDVQEQKRICAMFYPVLWEIESCYWTYRNMPVQPEYETLMMCTQTTYIDSKNVRYWLGNTTGLNESDIQAVEARLENLLTKARNLVLEPMHKLIIKEFEFITLLALNIWAPRNHRGCVSEDRAEQVRDALFDDLHYLYCDGLKIDKYSSRMGEMMCLHTEVQNADMSSTIKNILFSDLNAYLYSI | not soluble |
| MSLENDSLEITYLGKRYKISLNNTFSDEMKRTLKERFHNQELNALELLKDYLHESCQNEYLHNELQKLLEKISSCSIT | not soluble |
| MVEKMNEEVMDSKELQVGDVVTGSVTKVEEKQVLVNVGYKTDGVIPISELANVHIEKASDVVELDQTLELKIIKLEEDDLVLSKRAVDAEKAWVELQEKFTSGHVFDVIVKDIVNGGLVVDLGVRGFIPASLVEVHYVEDFTDYKGKTLAVKIVELDREKNRVILSHKAVVELELDSKKKEAISSLKEGDVVEGTVQRLTDFGAFVNVGGVDGLVHISQISHERVEQPSEVLEQGQKVKVKVLSVDADTQRISLSIKAAQPGPWENVAGEIKAGDIREGVVKRLVTFGAFVEILPGVEGLVHVSQIANRHVKNPNEVLEMGQEVKVKVLEVHVAEKRISLSIKEALEENNVTEDYSQYEPNADSATFQLSDIIGEQLKKLKKLEHHHHHH | soluble |
| AAISLDEQWRMIKENQLMMIAHGIASPRLPEASNLWLISLKLWSCESEIIDEQTFRRSFSDPALSHALDQRVCHDFFQQAAKAVASKGLSIALPLSVAGLSSATLVNELLEQLENSPLPARLLHLIIPAEAIFDHAESVQKLRLAGCRIVFSQVGRDLQIFNSLKANMADYLLLDGELCANVQGNLMDEMLITIIQGHAQRLGMKTIAGPVVLPLVMDTLSGIGVDLIYGDVIANAQPLDLLVNRSYFAIN | not soluble |
| MSLKFEKFICNLRQFTLTNGLKRSIAIISLVDKKGNISKGEVAPLPPWSKETLEEAIRQIDAKKSFILNIDWTIENYRDALMHLHLFPSVQFGIESALLSFLDPLKTYSIPVSALLMGSKKEILAQAKLRLQEGYQIAKLKVSQLSFSDAAKLIHQLKDTFRLRIDVNRAWKTEDSLQFFSEYSLDSFDYVEEPFQNPKELSLFSHPLAVDESFPSNFSLQDLETLCSLKSLIYKPTLQGGMTTCLPVYKWAKQRNIEFVLSSSFESELGLSHLISMAARLKLTSPIGIGTYHFLPQTEGPFLISNGQVNLKNLEGHHHHHH | not soluble |
| MIIIQLNERQLKIIDIVKENEPITSESIASSLNVTRATLRSDLAILTMTGILDARPKVGYFYSGVSEINLIGKSVKEKTVEDIMSMPVLAKKDESIYDVIVTMFLSDVGSIVIIDENEELCGVVSRKDLLKATIGGSDINKMPIGMIMTRTPNVVTLTKGASVLLASRKIIEHEVDSIPIVEYKGEDKNHMRVVGRISKTNITKLFLEIVDN | not soluble |
| MKYGIVIFPPKRIQDFANSYRKRYDSHYALIPPHITLKYPFEADEEQIKKMAKELRRIAAETPPIPIKVTKFSSFYPTSNIIYLKVEPNDVLERLHEQLHSGLFAGKPEFVFVPHITIGRDLPGAEYADVYSQLKLQDVHFEETVDRFHLLYQLENGSWTVYETFIVGGKETV | soluble |
| MGHHHHHHSHMMYAQSKGIYYVQLEDDIVAKPNYLSTMKNFALQQPSEDWMILEFSQLGFIGKMFKSLDLSLIVEFILMFYRDKPIDWLLDHILWVKVCNPEKDAKHCDRQKANLRIRFKPSLFQHVGTHSSLAGKIQKLKDKDFGKQALRKEHVNPPAEVSTSLKTYQHFTLEKAYLREDFFWAFTPAAGDFIRFRFFQPLRLERFFFRSGNIEHPEDKLFNTSVEVLPFDNPQSDKEALQEGRTATLRYPRSPDGYLQIGSFYKGVAEGEVDPAFGPLEALRLSIQTDSPVWVILSEIFLKKAD | soluble |
| MSLKDNEKYNALDFIKDDEINSLIAKGKELVSDKELVREIIEKSKSAEGLTPEETAVLLNLEDKELIEEMFKAARQVKEKLYGKRLVVFAPLYVSNYCVNNCTYCGYKHCNDELKRKKLNKEQLIEEVKVLESLGHKRIALEAGEDPVNAPLDYILDCIKSIYSIKFDNGSIRRINVNIAATSVEDYKRLKDAEIGTYILFQETYHKPTYERLHVSGPKHNYNYHTTAMHRAREAGIDDIGMGVLYGLYDYKYETLAMLMHAMDLEETTGVGPHTLSVPRIRPAENVSLENYPYLVDDEDFKKIVAILRLAVPYAGLILSTREEPGLRDEIIALGVSQVSTGSCTGVGGYSESYIDPEEKPQFEVGDHRSPVEMIESLMEAGYIPSYCTACYREGRTGERFMDIVKSGELYKICEANALITLKEFIDDYGTDRTREIGDKLIKKSIDEIDNESFRKSVEEKINKISNGTRDLRFEGHHHHHH | soluble |
| MEEIIKPVSKELLKAELTEDRRLRMTNKSNNQIYIITHQNAPNVMREIGRLREIAFRAAGGGTGLSMDIDEYDTMEHPYKQLIVWNPEAEEILGGYRYLLGTDVRFDEAGAPILATSHMFHFSDAFIKEYLPQTIELGRSFVTLEYQSTRAGSKGLFALDNLWDGLGALTVVMPNVKYFFGKVTMYPSYHRRGRDMILYFLKKHFNDREELVTPMEPLILETSDEELRTLFCKDTFKEDYKILNTEIRKLGYNIPPLVNAYMSLSPTMRMFGTAINYEFGDVEETGILIAVDEILEDKRIRHIQTFIESHPDALKMPCESEGVFTPKVVTPQEGCCH | not soluble |
| MGSDKIHHHHHHMSFDLALFSSKLRRCREQFEKSLVEVTTATGIPENILAALENGERQPTGDEVLIFADYYLCDYQFFISNERVASFDQTETLFRRYGEEFSKEDRLAVQEFLFLCECEDFLLKLVQTHIYKPFSFIKRGNYYIGHGKEAAKALRKHLGYASNAVRMDVYEDFRSLGFHIFRRQLGNSNISGLFIKHPTAGKCILVNYSEDIYRQRFTAAHESAHGILDDEQEFVISLKTDKKNLVEVRANNFASDYLMPPEFLQKIPDSQTWTPEKAIEWANKLKVSTEALANALKSANFISENVEIQIKAVRVPRDLKVDPELPESLSFGSRQRREKLLKRGLSNFYVGLCFDVYEQGFISAGRVAEMLLVSKYELTEIASIYGRTIRYGD | not soluble |
